# According to patent publication US20040198654A1 (Eli Lilly, published 2004):
# Where no end group is shown, it is not given here.
# Molecular target: GLP-1 receptor
# Experiment: cell-based or functional assay
row,Binder,GLP-1 receptor activation relative to Val^8-GLP-1(7-37)OH
1,HVEGTWTSDVSSYLEGQAAKEFIAWLVKGRG-OH [Val^8-Trp^12-GLP-1(7-37)OH],1.1 fold of Val^8-GLP-1(7-37)OH
2,HVEGTYTSDVSSYLEEQAAKEFIAWLVKGRG-OH [Val^8-Tyr^12-Glu^22-GLP-1(7-37)OH],2.7 fold of Val^8-GLP-1(7-37)OH
3,HVEGTFTSDYSSYLEGQAAKEFIAWLVKGRG-OH [Val^8-Tyr^16-GLP-1(7-37)OH],2.5 fold of Val^8-GLP-1(7-37)OH
4,HVEGTFTSDVSSWLEEQAAKEFIAWLVKGRG-OH [Val^8-Trp^19-Glu^22-GLP-1(7-37)OH],3.2 fold of Val^8-GLP-1(7-37)OH
5,HVEGTFTSDVSSYLEGQAAKEFIAWLVKGRH-OH [Val^8-His^37-GLP-1(7-37)OH],1.2 fold of Val^8-GLP-1(7-37)OH
6,HVEGTFTSDVSIYLEEQAAKEFIAWLVKGRG-OH [Val^8-Ile^18-Glu^22-GLP-1(7-37)OH],4 fold of Val^8-GLP-1(7-37)OH
7,HVEGTFTSDVSSYLEEQAIKEFIAWLVKGRG-OH [Val^8-GLU^22-Ile^25-GLP-1(7-37)OH],3.1 fold of Val^8-GLP-1(7-37)OH
8,HVEGTFTSDWSSYLEEQAVKEFIAWLIKGRG-OH [Val^8-Trp^16-Glu^22-Val^25-Ile^33-GLP-1(7-37)OH],5 fold of Val^8-GLP-1(7-37)OH
9,HVEGTFTSDWSSYLEEQAAKEFIAWLIKGRG-OH [Val^8-Trp^16-Glu^22-Ile^33-GLP-1(7-37)OH],4.1 fold of Val^8-GLP-1(7-37)OH
10,HVEGTFTSDVSSYFEEQAAKEFIAWLVKGRG-OH [Val^8-Phe^20-Glu^22-GLP-1(7-37)OH],2.7 fold of Val^8-GLP-1(7-37)OH
11,HVEGTFTSDWSSYLEEQAVKEFIAWLVKGRG-OH [Val^8-Trp^16-Glu^22-Val^25-GLP-1(7-37)OH],4.4 fold of Val^8-GLP-1(7-37)OH
12,HVEGTFTSDVSFYLEEQAAKEFIAWLVKGRG-OH [Val^8-Phe^18-Glu^22-GLP-1(7-37)OH],2 fold of Val^8-GLP-1(7-37)OH
13,HGEGTFTSDVSSYLEGQAAKEFIAWLVKGRG-OH [Gly^8-GLP-1(7-37)OH],1.7 fold of Val^8-GLP-1(7-37)OH
14,HVEGTYTSDYSSYLEGQAAKEFIAWLVKGRG-OH [Val^8-Tyr^12-Tyr^16-GLP-1(7-37)OH],1.5 fold of Val^8-GLP-1(7-37)OH
15,HVEGTFTSDVSSFLEEQAAKEFIAWLVKGRG-OH [Val^8-Phe^19-Glu^22-GLP-1(7-37)OH],1.5 fold of Val^8-GLP-1(7-37)OH
16,HVEGTFTSDYSSFLEGQAAKEFIAWLVKGRG-OH [Val^8-Tyr^16-Phe^19-GLP-1(7-37)OH],2.8 fold of Val^8-GLP-1(7-37)OH

row,Binder,GLP-1 receptor activation relative to Val^8-GLP-1(7-37)OH
1,HVEGTFTSDFSSYLEEQAAKEFIAWLVKGRG-OH [Val^8-Phe^16-Glu^22-GLP-1(7-37)OH],2.3 fold of Val^8-GLP-1(7-37)OH
2,HVEGTFTSDVSSYLEEQAAKEFIAWLVKGRH-OH [Val^8-Glu^22-His^37-GLP-1(7-37)OH],4.7 fold of Val^8-GLP-1(7-37)OH
3,HVEGTFTSDISSYLEEQAAKEFIAWLVKGRG-OH [Val^8-Ile^16-Glu^22-GLP-1(7-37)OH],3.3 fold of Val^8-GLP-1(7-37)OH
4,HVEGTFTSDVSSYLEEQALKEFIAWLVKGRG-OH [Val^8-Glu^22-Leu^25-GLP-1(7-37)OH],2.8 fold of Val^8-GLP-1(7-37)OH
5,HVEGTFTSDVSSYLEGQALKEFIAWLVKGRG-OH [Val^8-Leu^25-GLP-1(7-37)OH],0.5 fold of Val^8-GLP-1(7-37)OH
6,HVEGTYTSDVSSYLEGQAAKEFIAWLVKGR-NH2 [Val^8-Tyr^12-GLP-1(7-36)NH2],1.1 fold of Val^8-GLP-1(7-37)OH
7,HVEGTFTSDLSSYLEEQAAKEFIAWLVKGRG-OH [Val^8-Leu^16-Glu^22-GLP-1(7-37)OH],4.3 fold of Val^8-GLP-1(7-37)OH
8,HVEGTFTSDVSKYLEEQAAKEFIAWLVKGRG-OH [Val^8-Lys^18-Glu^22-GLP-1(7-37)OH],2.5 fold of Val^8-GLP-1(7-37)OH
9,HVEGTYTSDVSSYLEGQAAKEFIAWLVKGRG-OH [Val^8-Tyr^12-GLP-1(7-37)OH],1.7 fold of Val^8-GLP-1(7-37)OH
10,HVEGTFTSDVSSYLEGQAAKEFIEWLVKGRG-OH [Val^8-Glu^30-GLP-1(7-37)OH],0.7 fold of Val^8-GLP-1(7-37)OH
11,HVEGTFTSDVSSYLEEQAAKIFIAWLVKGRG-OH [Val^8-Glu^22-Ile^27-GLP-1(7-37)OH],2 fold of Val^8-GLP-1(7-37)OH
12,HVDGIFTSDYSSYLEEQAAKEFIAWLVKGRG-OH [Val^8-Asp^9-Ile^11-Tyr^16-Glu^22-GLP-1(7-37)OH],4.3 fold of Val^8-GLP-1(7-37)OH
13,HVEGTFTSDYSSWLEEQAAKEFIAWLVKGRG-OH [Val^8-Tyr^16-Trp^19-Glu^22-GLP-1(7-37)OH],3.5 fold of Val^8-GLP-1(7-37)OH
14,HVEGTFTSDLSSYLEGQAAKEFIAWLVKGRG-OH [Val^8-Leu^16-GLP-1(7-37)OH],1.1 fold of Val^8-GLP-1(7-37)OH
15,HVEGTWTSDVSSYLEEQAAKEFIAWLVKGRG-OH [Val^8-Trp^12-Glu^22-GLP-1(7-37)OH],1.7 fold of Val^8-GLP-1(7-37)OH
